From patent publication US20200291071A1

B1: Orf11*S (acyltransferase, single mutant W163A of Orf11*) (protein)
chain: MGSSHHHHHHSSGLVPRGSHMMMDPETVRIALGLEERTAAWLTELDELGPPAEPVRLPRGEEARDLLRRLEVPELDAEEIVAAAPDPDRDPALWWLLERTHHAIVRHMGDHRAKPRGGPPLPYEGGAAARYFHVYVFLATVPAVRRFHAERGIPDEVGWETLTQLGELVAIHRRKYGQGGMNMQAWTTYHLRGILYRLGRLQFSLATGKDGTPHLGLHVPEWGGPLLPKAYDESLHRARPFFDRHFPEHGARVAWGSSWMLDPQLEEYLTEDSNIIQLARFWTLTDSAPEPGNADGDSSILEFVFRYNGQPLDELPQRSSLERAVIAHLKAGRHWHMRTGFVKLP

Columns and labels:
[1] = target: r6,Glm-Tei-pseudoaglycone (compound 12); test: ITC (isothermal titration calorimetry), exothermic injections, sigmoidal isotherm over molar ratio about 0.45 to 1.85
[2] = target: r6,Glm-Tei-pseudoaglycone (compound 12); test: ITC
[3] = target: r4,Glm-Tei-pseudoaglycone (compound 6)
[4] = target: r6,Glm-Tei-pseudoaglycone (compound 12)

| Molecule | Kd [1] [µM] | Kd [2] [µM] | Km (acyl-transfer kinetics, HPLC) [3] | Km (acyl-transfer kinetics, HPLC) [4] |
| --- | --- | --- | --- | --- |
| Dbv27 (methyltransferase encoded by gene dbv27) (enzyme) | 5.1 | 5 | – | – |
| B1 | – | – | Km=0.07 mM | Km=0.3±0.03 mM |
